The record followed here is the supplement of paper PMC5998384.

The subject of data set [1] is HeLa Kyoto. Description: melting temperature (median over replicates), in situ; higher = more thermally stable.
Data set [2] has as its system HeLa Kyoto. Briefly: solubility change mitosis vs G1/S (difference of NP-40 vs SDS log2 ratios) (log2 ratio difference); higher = more soluble in mitosis.
Data set [3] has as its system HeLa Kyoto. Briefly: thermal stability score vs G1/S (z-score of summed log2 fold changes over temperatures); higher = more thermally stable than in G1/S.
For data set [4], the system named is HeLa Kyoto. Description: solubility in G1/S (NP-40 vs SDS abundance) (log2 ratio); higher = more soluble. The conditions noted are these: cell cycle stage: G1/S.
[5] abbreviates: cell cycle stage: early G1 (4.5 h after nocodazole release).
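Throughout, for melting temperature (median over replicates), in situ: HeLa Kyoto cells synchronized by double thymidine or nocodazole block, proteins quantified by TMT10plex mass spectrometry, three independent biological replicates.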
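Throughout, for solubility change mitosis vs G1/S (difference of NP-40 vs SDS log2 ratios): synchronized HeLa Kyoto cells (double thymidine block for G1/S, nocodazole release for mitosis), protein amounts in NP-40 versus SDS lysates quantified by mass spectrometry, three biological replicates.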
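Throughout, for solubility in G1/S (NP-40 vs SDS abundance): HeLa Kyoto cells arrested at G1/S by double thymidine block, proteins quantified by TMT10plex mass spectrometry in mild NP-40 versus SDS extracts, three biological replicates.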
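Throughout, for thermal stability score vs G1/S (z-score of summed log2 fold changes over temperatures): synchronized HeLa Kyoto cells, proteins quantified by TMT10plex mass spectrometry, three biological replicates, mitosis taken 0.5 h after nocodazole release, G1/S directly after double thymidine block.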

Consider “MDADDSRAPKGSLRKFLEHLSGAGKAIGVLTSGGDAQGMNAAVRAVVRMGIYVGAKVYFIYEGYQGMVDGGSNIAEADWESVSSILQVGGTIIGSARCQAFRTREGRLKAACNLLQRGITNLCVIGGDGSLTGANLFRKEWSGLLEELARNGQIDKEAVQKYAYLNVVGMVGSIDNDFCGTDMTIGTDSALHRIIEVVDAIMTTAQSHQRTFVLEVMGRHCGYLALVSALACGADWVFLPESPPEEGWEEQMCVKLSENRARKKRLNIIIVAEGAIDTQNKPITSEKIKELVVTQLGYDTRVTILGHVQRGGTPSAFDRILASRMGVEAVIALLEATPDTPACVVSLNGNHAVRLPLMECVQMTQDVQKAMDERRFQDAVRLRGRSFAGNLNTYKRLAIKLPDDQIPKTNCNVAVINVGAPAAGMNAAVRSAVRVGIADGHRMLAIYDGFDGFAKGQIKEIGWTDVGGWTGQGGSILGTKRVLPGKYLEEIATQMRTHSINALLIIGGFEAYLGLLELSAAREKHEEFCVPMVMVPATVSNNVPGSDFSIGADTALNTITDTCDRIKQSASGTKRRVFIIETMGGYCGYLANMGGLAAGADAAYIFEEPFDIRDLQSNVEHLTEKMKTTIQRGLVLRNESCSENYTTDFIYQLYSEEGKGVFDCRKNVLGHMQQGGAPSPFDRNFGTKISARAMEWITAKLKEARGRGKKFTTDDSICVLGISKRNVIFQPVAELKKQTDFEHRIPKEQWWLKLRPLMKILAKYKASYDVSDSGQLEHVQPWSV [PFKP]”, for which the melting temperature in data set [1] (cell cycle stage: G1/S) was determined as 57.4 °C; in data set [1] (cell cycle stage: mitosis) it was 58.3 °C. The “solubility change mitosis (log2)” value in data set [2] is -0.138. Also, the thermal stability score is -0.744 in data set [3] (setting [5]) and -1.49 in data set [3] (cell cycle stage: mitosis). Also, in data set [4], the “solubility in G1/S (log2)” value is -0.0125.
Take “MDAGFFRGTSAEQDNRFSNKQKKLLKQLKFAECLEKKVDMSKVNLEVIKPWITKRVTEILGFEDDVVIEFIFNQLEVKNPDSKMMQINLTGFLNGKNAREFMGELWPLLLSAQENIAGIPSAFLELKKEEIKQRQIEQEKLASMKKQDEDKDKRDKEEKESSREKRERSRSPRRRKSRSPSPRRRSSPVRRERKRSHSRSPRHRTKSRSPSPAPEKKEKTPELPEPSVKVKEPSVQEATSTSDILKVPKPEPIPEPKEPSPEKNSKKEKEKEKTRPRSRSRSKSRSRTRSRSPSHTRPRRRHRSRSRSYSPRRRPSPRRRPSPRRRTPPRRMPPPPRHRRSRSPVRRRRRSSASLSGSSSSSSSSRSRSPPKKPPKRTSSPPRKTRRLSPSASPPRRRHRPSPPATPPPKTRHSPTPQQSNRTRKSRVSVSPGRTSGKVTKHKGTEKRESPSPAPKPRKVELSESEEDKGGKMAAADSVQQRRQYRRQNQQSSSDSGSSSSSEDERPKRSHVKNGEVGRRRRHSPSRSASPSPRKRQKETSPRGRRRRSPSPPPTRRRRSPSPAPPPRRRRTPTPPPRRRTPSPPPRRRSPSPRRYSPPIQRRYSPSPPPKRRTASPPPPPKRRASPSPPPKRRVSHSPPPKQRSSPVTKRRSPSLSSKHRKGSSPSRSTREARSPQPNKRHSPSPRPRAPQTSSSPPPVRRGASSSPQRRQSPSPSTRPIRRVSRTPEPKKIKKAASPSPQSVRRVSSSRSVSGSPEPAAKKPPAPPSPVQSQSPSTNWSPAVPVKKAKSPTPSPSPPRNSDQEGGGKKKKKKKDKKHKKDKKHKKHKKHKKEKAVAAAAAAAVTPAAIAAATTTLAQEEPVAAPEPKKETESEAEDNLDDLEKHLREKALRSMRKAQVSPQS [SRRM1]”: the melting temperature in data set [1] (cell cycle stage: G1/S) is 51.3 °C; in data set [1] (cell cycle stage: mitosis), 50 °C. Further, the “solubility change mitosis (log2)” value in data set [2] was 1.02. Further, the thermal stability score in data set [3] (setting [5]) is -6.13; in data set [3] (cell cycle stage: mitosis), -6.36. Also, in data set [4], the “solubility in G1/S (log2)” value is -1.06.
Regarding “MDAKARNCLLQHREALEKDIKTSYIMDHMISDGFLTISEEEKVRNEPTQQQRAAMLIKMILKKDNDSYVSFYNALLHEGYKDLAALLHDGIPVVSSSSGKDSVSGITSYVRTVLCEGGVPQRPVVFVTRKKLVNAIQQKLSKLKGEPGWVTIHGMAGCGKSVLAAEAVRDHSLLEGCFPGGVHWVSVGKQDKSGLLMKLQNLCTRLDQDESFSQRLPLNIEEAKDRLRILMLRKHPRSLLILDDVWDSWVLKAFDSQCQILLTTRDKSVTDSVMGPKYVVPVESSLGKEKGLEILSLFVNMKKADLPEQAHSIIKECKGSPLVVSLIGALLRDFPNRWEYYLKQLQNKQFKRIRKSSSYDYEALDEAMSISVEMLREDIKDYYTDLSILQKDVKVPTKVLCILWDMETEEVEDILQEFVNKSLLFCDRNGKSFRYYLHDLQVDFLTEKNCSQLQDLHKKIITQFQRYHQPHTLSPDQEDCMYWYNFLAYHMASAKMHKELCALMFSLDWIKAKTELVGPAHLIHEFVEYRHILDEKDCAVSENFQEFLSLNGHLLGRQPFPNIVQLGLCEPETSEVYQQAKLQAKQEVDNGMLYLEWINKKNITNLSRLVVRPHTDAVYHACFSEDGQRIASCGADKTLQVFKAETGEKLLEIKAHEDEVLCCAFSTDDRFIATCSVDKKVKIWNSMTGELVHTYDEHSEQVNCCHFTNSSHHLLLATGSSDCFLKLWDLNQKECRNTMFGHTNSVNHCRFSPDDKLLASCSADGTLKLWDATSANERKSINVKQFFLNLEDPQEDMEVIVKCCSWSADGARIMVAAKNKIFLFDIHTSGLLGEIHTGHHSTIQYCDFSPQNHLAVVALSQYCVELWNTDSRSKVADCRGHLSWVHGVMFSPDGSSFLTSSDDQTIRLWETKKVCKNSAVMLKQEVDVVFQENEVMVLAVDHIRRLQLINGRTGQIDYLTEAQVSCCCLSPHLQYIAFGDENGAIEILELVNNRIFQSRFQHKKTVWHIQFTADEKTLISSSDDAEIQVWNWQLDKCIFLRGHQETVKDFRLLKNSRLLSWSFDGTVKVWNIITGNKEKDFVCHQGTVLSCDISHDATKFSSTSADKTAKIWSFDLLLPLHELRGHNGCVRCSAFSVDSTLLATGDDNGEIRIWNVSNGELLHLCAPLSEEGAATHGGWVTDLCFSPDGKMLISAGGYIKWWNVVTGESSQTFYTNGTNLKKIHVSPDFKTYVTVDNLGILYILQTLE [APAF1]”, the melting temperature in data set [1] (cell cycle stage: G1/S) is 51.2 °C; in data set [1] (cell cycle stage: mitosis), 49.7 °C. In addition, the “solubility change mitosis (log2)” value in data set [2] is -0.0529. In addition, the thermal stability score was -0.116 in data set [3] (setting [5]) and 0.0498 in data set [3] (cell cycle stage: mitosis). In addition, in data set [4], the “solubility in G1/S (log2)” value was -0.414.
